Measurements taken from the supplement of paper PMC7877785.
± gives the uncertainty stated by the source.

Assay: self-splicing fitness, log relative to wild type (ln ratio); higher = more splicing; Tetrahymena group I intron in knt gene, E. coli kanamycin selection, DiMSum; sequences stand for … in CUCUCU…GGAGGGAAAAGUUAUCAGGCAUGCACCUGGUAGCUAGUCUUUAAACCAAUAGAUUGCAUCGGUUUAAAAGGCAAGACCGUCAAAUUGCGGGAAAGGGGUCAACAGCCGUUCAGUACCAAGUCUCAGGGGAAACUUUGAGAUGGCCUUGCAAAGGGUAUGGUAAUAAGCUGACGGACAUGGUCCUAACCACGCAGCCAAGUCCUAAGUCAACAGAUCUUCUGUUGAUAUGGAUGCAGUUCACAGACUAAAUGUCGGUCGGGGAAGAUGUAUUCUUCUCAUAAGAUAUAGUCGGACCUCUCCUUAAUGGGAGCUAGCGGAUGAAGUGAUGCAACACUGGAGCCGCUGGGAACUAAUUUGUAUGCGAAAGUAUAUUGAUUAGUUUUGGAGUACUCGUGGUCG
Summary of the method: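 Six replicate transformations of E. coli BL21(DE3) with a pET-22b(+) library were grown overnight at 37°C or 30°C. The library randomised all eight P1ex-region intron nucleotides, the intron lying in the knt kanamycin-resistance gene, and plates were LB agar with or without 25 μg/mL kanamycin plus 100 μg/mL carbenicillin, 50 μM IPTG and 0.2% rhamnose. Pooled colonies were amplicon-sequenced on an Illumina HiSeq 2500, and fitness is the DiMSum error-weighted combination of wild-type-normalised replicate fold changes, kanamycin versus none.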

Row | Sequence | self-splicing fitness (ln) (30 °C) | self-splicing fitness (ln) (37 °C)
1 | CGCGAGCAAUAUUACGUCUC | -3.71 ± 0.35 | -2.28 ± 0.33
2 | CGCGAGCAAUAUUACGUGAC |  | -2.54 ± 0.3
3 | CGCGAGCAAUAUUACGUGCG |  | -3.3 ± 0.47
4 | CGCUAGCAAUAUUACGAGGU | -3.83 ± 0.31 | -2.58 ± 0.23
5 | CGCUAGCAAUAUUACGAUAU | -3.98 ± 0.36 | -2.63 ± 0.25
6 | CGCUAGCAAUAUUACGAUGC | -4.31 ± 0.46 | -2.58 ± 0.36
7 | CGCUAGCAAUAUUACGCGGC | -3.25 ± 0.35 | -3.1 ± 0.29
8 | CGCUAGCAAUAUUACGCUGG | -2.63 ± 0.28 | -1.85 ± 0.36
9 | CGCUAGCAAUAUUACGCUUG | -3.3 ± 0.27 | -3 ± 0.4
10 | CGCUAGCAAUAUUACGGAAU | -3.52 ± 0.28 | -2.02 ± 0.26
11 | CGCUAGCAAUAUUACGGAUA | -2.99 ± 0.17 | -2.14 ± 0.22
12 | CGCUAGCAAUAUUACGGAUG | -1.13 ± 0.075 | -0.108 ± 0.096
13 | CGCUAGCAAUAUUACGGCCU | -0.677 ± 0.073 | -0.609 ± 0.1
14 | CGCUAGCAAUAUUACGGGCC | -2.29 ± 0.17 | -1.92 ± 0.19
15 | CGCUAGCAAUAUUACGGUGA | -2.28 ± 0.14 | -0.996 ± 0.11
16 | CGCUAGCAAUAUUACGUACU | -2.86 ± 0.15 | -0.0116 ± 0.18
17 | CGCUAGCAAUAUUACGUAGU | -3.48 ± 0.13 | -1.34 ± 0.12
18 | CGCUAGCAAUAUUACGUUGU | -3.3 ± 0.2 | -1.59 ± 0.18
19 | CGGAAGCAAUAUUACGAACA | -1.18 ± 0.12 | -0.826 ± 0.13
20 | CGGAAGCAAUAUUACGACAG | -0.256 ± 0.17 | 0.0808 ± 0.23
21 | CGGAAGCAAUAUUACGACCU | 0.28 ± 0.096 | 0.399 ± 0.11
22 | CGGAAGCAAUAUUACGACGG | -0.101 ± 0.13 | -0.695 ± 0.14
23 | CGGAAGCAAUAUUACGAGAG | -3.45 ± 0.49 | -1.65 ± 0.26
24 | CGGAAGCAAUAUUACGAGGA | -1.95 ± 0.2 | -1.4 ± 0.19
25 | CGGAAGCAAUAUUACGCACU | -2.24 ± 0.13 | -0.396 ± 0.11

Row | Sequence | self-splicing fitness (ln) (30 °C) | self-splicing fitness (ln) (37 °C)
26 | CGGAAGCAAUAUUACGCAUG | -1.53 ± 0.13 | -0.32 ± 0.11
27 | CGGAAGCAAUAUUACGCCCC | -1.49 ± 0.39 | 
28 | CGGAAGCAAUAUUACGCUUC | -3.81 ± 0.35 | 
29 | CGGAAGCAAUAUUACGGAGU | -4.49 ± 0.39 | -2.12 ± 0.2
30 | CGGAAGCAAUAUUACGGCAA | -2.89 ± 0.22 | -1.41 ± 0.18
31 | CGGAAGCAAUAUUACGGCUU | -3.34 ± 0.3 | -2.75 ± 0.36
32 | CGGAAGCAAUAUUACGGUUG | -0.585 ± 0.059 | -0.061 ± 0.085
33 | CGGAAGCAAUAUUACGUAGC | -2.64 ± 0.38 | -3.47 ± 0.46
34 | CGGAAGCAAUAUUACGUCAU | -3.78 ± 0.16 | -3.33 ± 0.2
35 | CGGAAGCAAUAUUACGUUUU | -3.64 ± 0.23 | -2.95 ± 0.18
36 | CGGCAGCAAUAUUACGAAUC | -4.16 ± 0.39 | -2.23 ± 0.34
37 | CGGCAGCAAUAUUACGAAUU | -3 ± 0.23 | -2.6 ± 0.33
38 | CGGCAGCAAUAUUACGACGC | -3.45 ± 0.28 | -0.355 ± 0.21
39 | CGGCAGCAAUAUUACGAGCA | -2.99 ± 0.24 | -0.81 ± 0.13
40 | CGGCAGCAAUAUUACGAUAU | -4.27 ± 0.23 | -1.51 ± 0.098
41 | CGGCAGCAAUAUUACGCAAG | -1.93 ± 0.13 | -1.01 ± 0.16
42 | CGGCAGCAAUAUUACGCAUA | -2.08 ± 0.21 | -1.03 ± 0.13
43 | CGGCAGCAAUAUUACGCGGG | -2.12 ± 0.12 | -1.42 ± 0.13
44 | CGGCAGCAAUAUUACGCUCU | -2.11 ± 0.14 | -0.612 ± 0.16
45 | CGGCAGCAAUAUUACGGCAU | -0.976 ± 0.088 | -0.0577 ± 0.1
46 | CGGCAGCAAUAUUACGGGGG | -3 ± 0.13 | -1.86 ± 0.16
47 | CGGCAGCAAUAUUACGGGUU | -4.26 ± 0.28 | -2.87 ± 0.33
48 | CGGCAGCAAUAUUACGGUAC | -3.61 ± 0.49 | -2.9 ± 0.23
49 | CGGCAGCAAUAUUACGUACA | -1.26 ± 0.11 | -0.624 ± 0.14
50 | CGGCAGCAAUAUUACGUCCG | -2.03 ± 0.12 | -2.92 ± 0.24

Row | Sequence | self-splicing fitness (ln) (30 °C) | self-splicing fitness (ln) (37 °C)
51 | CGGCAGCAAUAUUACGUCUA | -0.607 ± 0.071 | 0.443 ± 0.084
52 | CGGCAGCAAUAUUACGUCUU | -1.09 ± 0.066 | 0.328 ± 0.086
53 | CGGCAGCAAUAUUACGUGUA | -3.77 ± 0.25 | -2.21 ± 0.14
54 | CGGCAGCAAUAUUACGUUCA | -0.358 ± 0.068 | 0.0795 ± 0.082
55 | CGGCAGCAAUAUUACGUUUA | -2.06 ± 0.12 | -1.53 ± 0.13
56 | CGGCAGCAAUAUUACGUUUC | -3.29 ± 0.17 | -2.36 ± 0.19
57 | CGGGAGCAAUAUUACGAACU |  | -1.25 ± 0.45
58 | CGGGAGCAAUAUUACGAAGG | -1.9 ± 0.39 | -1.74 ± 0.41
59 | CGGGAGCAAUAUUACGACUU | -1.58 ± 0.37 | -1.83 ± 0.49
60 | CGGGAGCAAUAUUACGAGUG | -3.61 ± 0.24 | -1.61 ± 0.2
61 | CGGGAGCAAUAUUACGAUAA | -3.16 ± 0.25 | -2.57 ± 0.39
62 | CGGGAGCAAUAUUACGCAGA | -3.67 ± 0.48 | -2.01 ± 0.29
63 | CGGGAGCAAUAUUACGCCCA | -2.28 ± 0.25 | -1.24 ± 0.28
64 | CGGGAGCAAUAUUACGCGAA | -2.47 ± 0.25 | -1.9 ± 0.23
65 | CGGGAGCAAUAUUACGCUCA | -4.3 ± 0.46 | -0.0948 ± 0.37
66 | CGGGAGCAAUAUUACGCUUA | -2.19 ± 0.21 | -2.87 ± 0.43
67 | CGGGAGCAAUAUUACGGACG | -2 ± 0.14 | -2.14 ± 0.23
68 | CGGGAGCAAUAUUACGGCUC | -3 ± 0.3 | -2.12 ± 0.42
69 | CGGGAGCAAUAUUACGGUCG | -2.77 ± 0.24 | -2.43 ± 0.27
70 | CGGGAGCAAUAUUACGGUCU | -2.67 ± 0.29 | -0.781 ± 0.45
71 | CGGGAGCAAUAUUACGGUGU | -3.71 ± 0.24 | -2.48 ± 0.25
72 | CGGGAGCAAUAUUACGUCAG | -3.08 ± 0.19 | -2.34 ± 0.24
73 | CGGGAGCAAUAUUACGUCCU | -2.54 ± 0.25 | 
74 | CGGGAGCAAUAUUACGUGGC | -2.62 ± 0.21 | -2.43 ± 0.36
75 | CGGUAGCAAUAUUACGAAAC |  | -2.72 ± 0.27

Row | Sequence | self-splicing fitness (ln) (30 °C) | self-splicing fitness (ln) (37 °C)
76 | CGGUAGCAAUAUUACGAAAG | -0.203 ± 0.16 | -0.493 ± 0.16
77 | CGGUAGCAAUAUUACGAGGU | -3.59 ± 0.25 | -2.03 ± 0.25
78 | CGGUAGCAAUAUUACGAUAC | -2.53 ± 0.22 | 
79 | CGGUAGCAAUAUUACGAUCC | -1.23 ± 0.22 | -1.56 ± 0.34
80 | CGGUAGCAAUAUUACGCUAC | -2.96 ± 0.47 | -2.93 ± 0.43
81 | CGGUAGCAAUAUUACGCUUA |  | -1.95 ± 0.2
82 | CGGUAGCAAUAUUACGUACU | -1.36 ± 0.15 | -0.578 ± 0.16
83 | CGGUAGCAAUAUUACGUCAA | -1.08 ± 0.29 | 
84 | CGGUAGCAAUAUUACGUCCC | -0.348 ± 0.48 | 0.985 ± 0.48
85 | CGGUAGCAAUAUUACGUGGU | -3.17 ± 0.21 | -2.3 ± 0.21
86 | CGUAAGCAAUAUUACGAAAA | -3.49 ± 0.31 | -1.49 ± 0.16
87 | CGUAAGCAAUAUUACGAUAC |  | -2.9 ± 0.47
88 | CGUAAGCAAUAUUACGAUUA | -2.03 ± 0.23 | -1.64 ± 0.32
89 | CGUAAGCAAUAUUACGCAUA | -3.73 ± 0.34 | -3.16 ± 0.21
90 | CGUAAGCAAUAUUACGCCGC | -1.76 ± 0.45 | -2.13 ± 0.42
91 | CGUAAGCAAUAUUACGCGAC | -3.62 ± 0.37 | -2.63 ± 0.42
92 | CGUAAGCAAUAUUACGCGGC | -2.84 ± 0.25 | -2.23 ± 0.3
93 | CGUAAGCAAUAUUACGCUAU | -3.13 ± 0.27 | -4.43 ± 0.42
94 | CGUAAGCAAUAUUACGCUCC | -2.95 ± 0.41 | -1.74 ± 0.48
95 | CGUAAGCAAUAUUACGGAUG | -0.733 ± 0.091 | -0.608 ± 0.12
96 | CGUAAGCAAUAUUACGGCUA | -2.35 ± 0.41 | -1.48 ± 0.33
97 | CGUAAGCAAUAUUACGGCUC |  | -0.977 ± 0.42
98 | CGUAAGCAAUAUUACGGGAG | -2.21 ± 0.22 | -2.81 ± 0.36
99 | CGUAAGCAAUAUUACGGGUU | -3.63 ± 0.17 | -2.98 ± 0.29
